This assay addresses BMP receptors.

B1: unmodified mature human MP52 (ligand)
chain: PLATRQGKRPSKNLKARCSRKALHVNFKDMGWDDWIIAPLEYEAFHCEGLCEFPLRSHLEPTNHAVIQTLMNSMDPESTPPTCCVPTRLSPISILFIDSANNVVYKQYEDMVVESCGCR
As to B1, the ALPase activity in MC3T3-E1 cells (times higher than the control group) turned out to be 3.

B2: recombinant mature human BMP-2 (ligand)
chain: QAKHKQRKRLKSSCKRHPLYVDFSDVGWNDWIVAPPGYHAFYCHGECPFPLADHLNSTNHAIVQTLVNSVNSKIPKACCVPTELSAISMLYLDENEKVVLKNYQDMVVEGCGCR
Take B2: the ALPase activity in C3H10T 1/2 cells (times higher than the control group) is 40.

The values are drawn from patent US7132397B1.
